Where a chain is given by its changes, count along the chain named. Values joined by “and” are separate entries in the source; they are usually repeats but may differ in a detail not shown here. Equal values may be shown once.
What was measured:
[1] = molecular target: Chlamydomonas reinhardtii CaMKII hub domain (Chlamydomonas reinhardtii); assay: crystal structure
[2] = molecular target: Chlamydomonas reinhardtii CaMKII hub domain (Chlamydomonas reinhardtii); assay: native MS
[3] = molecular target: Gonium pectoral CaMKII hub domain (Gonium pectoral); assay: native MS
[4] = molecular target: Volvox carteri f. nagarensis CaMKII hub domain (Volvox carteri f. nagarensis); assay: native MS
[5] = molecular target: the molecule itself; assay: native MS
[6] = molecular target: the molecule itself; assay: crystal structure

For “Chlamydomonas reinhardtii CaMKII hub domain (domain or fragment)”, the stoichiometry N [1] was 18 subunits and the stoichiometry N [2] was 18 subunits.

In the case of “Gonium pectoral CaMKII hub domain (domain or fragment)”, the stoichiometry N [3] is reported as 16 subunits and 18 subunits.

With “Volvox carteri f. nagarensis CaMKII hub domain (domain or fragment)” the stoichiometry N [4] was 18 subunits and 20 subunits.

B1: wild-type human CaMKII-α hub domain (domain or fragment, UniProt Q9UQM7 345-475, looked up)
chain: VRKQEIIKVTEQLIEAISNGDFESYTKMCDPGMTAFEPEALGNLVEGLDFHRFYFENLWSRNSKPVHTTILNPHIHLMGDESACIAYIRITQYLDAGGIPRTAQSEETRVWHRRDGKWQIVHFHRSGAPSV
In the case of B1, the “stoichiometry N” value [5] is reported as 12 subunits and 14 subunits.

B2: six-mutant human CaMKII-α hub domain (domain or fragment, UniProt Q9UQM7 345-475, looked up)
chain: B1 chain with T10N, E11Q, T68N, I70M, I120H, F123M
B2 was tested, and the “stoichiometry N” value [6] was 14 subunits and the “stoichiometry N” value [5] was 16 subunits.
